No end group written: not given here.
What was measured:
Test in all cases: MST; unlabelled protein titrated to 50-200 nM ATTO 488-labelled β-CT peptide, no third protein; 20 mM Tris pH 7.5, 200 mM NaCl, 1 mM TCEP, 0.05% Tween-20; Kd of individual titrations (in S0002 mean and sd, n = 2)
Details in all cases: both partners purified
THD1 Y395A = molecular target: T1, THD1 Y395A (UniProt P26039 1-405, Y395A)
T1 construct: talin-1 (TLN1) head domain, residues 1-405, Y395A; source: E. coli (DE3) Rosetta 2, purified (IMAC, SEC); not shown: His10-SUMO, N-terminal, cleaved

THD1 L400A = molecular target: T2, THD1 L400A (UniProt P26039 1-405, L400A)
T2 construct: talin-1 (TLN1) head domain, residues 1-405, L400A; source: E. coli (DE3) Rosetta 2, purified (IMAC, SEC); not shown: His10-SUMO, N-terminal, cleaved

THD1 K401A = molecular target: T3, THD1 K401A (UniProt P26039 1-405, K401A)
T3 construct: talin-1 (TLN1) head domain, residues 1-405, K401A; source: E. coli (DE3) Rosetta 2, purified (IMAC, SEC); not shown: His10-SUMO, N-terminal, cleaved

THD1 K404A = molecular target: T4, THD1 K404A (UniProt P26039 1-405, K404A)
T4 construct: talin-1 (TLN1) head domain, residues 1-405, K404A; source: E. coli (DE3) Rosetta 2, purified (IMAC, SEC); not shown: His10-SUMO, N-terminal, cleaved

[1] = molecular target: T5, talin-1 head domain (THD1) (UniProt P26039 1-405)
T5 construct: talin-1 (TLN1) head domain (THD), residues 1-405; murine TLN1 cDNA is named only for the cell lines; also called WT; source: E. coli (DE3) Rosetta 2, purified (IMAC, SEC); not shown: His10-SUMO, N-terminal, cleaved

THD1 I396A = molecular target: T6, THD1 I396A (UniProt P26039 1-405, I396A)
T6 construct: talin-1 (TLN1) head domain, residues 1-405, I396A; source: E. coli (DE3) Rosetta 2, purified (IMAC, SEC); not shown: His10-SUMO, N-terminal, cleaved

THD1 K403E = molecular target: T7, THD1 K403E (UniProt P26039 1-405, K403E)
T7 construct: talin-1 (TLN1) head domain, residues 1-405, K403E; source: E. coli (DE3) Rosetta 2, purified (IMAC, SEC); not shown: His10-SUMO, N-terminal, cleaved

THD1 K403A = molecular target: T8, THD1 K403A (UniProt P26039 1-405, K403A)
T8 construct: talin-1 (TLN1) head domain, residues 1-405, K403A; source: E. coli (DE3) Rosetta 2, purified (IMAC, SEC); not shown: His10-SUMO, N-terminal, cleaved

THD1 I398A = molecular target: T9, THD1 I398A (UniProt P26039 1-405, I398A)
T9 construct: talin-1 (TLN1) head domain, residues 1-405, I398A; source: E. coli (DE3) Rosetta 2, purified (IMAC, SEC); not shown: His10-SUMO, N-terminal, cleaved

THD1 KKAA = molecular target: T10, THD1 KKAA (UniProt P26039 1-405, KKAA (KK402/403))
T10 construct: the sheet prints only 'KKAA'; source: E. coli (DE3) Rosetta 2, purified (IMAC, SEC); not shown: His10-SUMO, N-terminal, cleaved

THD1 K402A = molecular target: T11, THD1 K402A (UniProt P26039 1-405, K402A)
T11 construct: talin-1 (TLN1) head domain, residues 1-405, K402A; source: E. coli (DE3) Rosetta 2, purified (IMAC, SEC); not shown: His10-SUMO, N-terminal, cleaved
T11 sequence (P26039 1-405 K402A): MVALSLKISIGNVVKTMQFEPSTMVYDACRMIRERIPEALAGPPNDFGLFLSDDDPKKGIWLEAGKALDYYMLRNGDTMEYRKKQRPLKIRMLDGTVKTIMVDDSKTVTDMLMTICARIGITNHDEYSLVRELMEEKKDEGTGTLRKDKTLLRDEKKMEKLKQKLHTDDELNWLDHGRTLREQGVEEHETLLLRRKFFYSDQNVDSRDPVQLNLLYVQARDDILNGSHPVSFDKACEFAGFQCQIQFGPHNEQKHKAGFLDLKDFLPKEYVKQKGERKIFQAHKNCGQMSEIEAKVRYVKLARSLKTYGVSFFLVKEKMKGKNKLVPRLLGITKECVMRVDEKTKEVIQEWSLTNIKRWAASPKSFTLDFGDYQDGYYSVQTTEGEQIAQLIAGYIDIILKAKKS

T3 sequence (P26039 1-405 K401A): as the sequence (P26039 1-405 K402A) above, with K401A, A402K counted along it
T2 sequence (P26039 1-405 L400A): as the sequence (P26039 1-405 K402A) above, with L400A, A402K counted along it
T1 sequence (P26039 1-405 Y395A): as the sequence (P26039 1-405 K402A) above, with Y395A, A402K counted along it
T5 sequence (P26039 1-405): as the sequence (P26039 1-405 K402A) above, with A402K counted along it
T4 sequence (P26039 1-405 K404A): as the sequence (P26039 1-405 K402A) above, with A402K, K404A counted along it
T9 sequence (P26039 1-405 I398A): as the sequence (P26039 1-405 K402A) above, with I398A, A402K counted along it
T7 sequence (P26039 1-405 K403E): as the sequence (P26039 1-405 K402A) above, with A402K, K403E counted along it
T8 sequence (P26039 1-405 K403A): as the sequence (P26039 1-405 K402A) above, with A402K, K403A counted along it
T6 sequence (P26039 1-405 I396A): as the sequence (P26039 1-405 K402A) above, with I396A, A402K counted along it
T10 sequence (P26039 other isoform, or with tags, fused parts or gaps KKAA (KK402/403) | KKAA (KK402/403)): as the sequence (P26039 1-405 K402A) above, with K403A counted along it

Kd (THD1 Y395A): 27.7 µM
Kd (THD1 L400A): 190 µM
Kd (THD1 K401A): 82.5 µM
Kd (THD1 K404A): 90.1 µM
Kd [1]: 105 µM
Kd (THD1 I396A): 579 µM
Kd (THD1 K403E): 60.9 µM
Kd (THD1 K403A): 68.1 µM
Kd (THD1 I398A): 141 µM
Kd (THD1 KKAA): 62.1 µM
Kd (THD1 K402A): 45 µM
B1: ATTO 488-labeled integrin β3 cytoplasmic tail (488–β3-CT) (peptide, UniProt O54890 741-787, looked up)
peptide: {ATTO 488}-KLLITIHDRKEFAKFEEERARAKWDTANNPLYKEATSTFTNITYRGT
notes: integrin β3 cytoplasmic tail (β3-CT); source: synthetic peptide (MPIB Core Facility)
